Assay results from US20220267751.

How the values were obtained:
[1] = target: T1, native plasminogen glycoform I (purified in-house from human plasma), P00747
T1 chain: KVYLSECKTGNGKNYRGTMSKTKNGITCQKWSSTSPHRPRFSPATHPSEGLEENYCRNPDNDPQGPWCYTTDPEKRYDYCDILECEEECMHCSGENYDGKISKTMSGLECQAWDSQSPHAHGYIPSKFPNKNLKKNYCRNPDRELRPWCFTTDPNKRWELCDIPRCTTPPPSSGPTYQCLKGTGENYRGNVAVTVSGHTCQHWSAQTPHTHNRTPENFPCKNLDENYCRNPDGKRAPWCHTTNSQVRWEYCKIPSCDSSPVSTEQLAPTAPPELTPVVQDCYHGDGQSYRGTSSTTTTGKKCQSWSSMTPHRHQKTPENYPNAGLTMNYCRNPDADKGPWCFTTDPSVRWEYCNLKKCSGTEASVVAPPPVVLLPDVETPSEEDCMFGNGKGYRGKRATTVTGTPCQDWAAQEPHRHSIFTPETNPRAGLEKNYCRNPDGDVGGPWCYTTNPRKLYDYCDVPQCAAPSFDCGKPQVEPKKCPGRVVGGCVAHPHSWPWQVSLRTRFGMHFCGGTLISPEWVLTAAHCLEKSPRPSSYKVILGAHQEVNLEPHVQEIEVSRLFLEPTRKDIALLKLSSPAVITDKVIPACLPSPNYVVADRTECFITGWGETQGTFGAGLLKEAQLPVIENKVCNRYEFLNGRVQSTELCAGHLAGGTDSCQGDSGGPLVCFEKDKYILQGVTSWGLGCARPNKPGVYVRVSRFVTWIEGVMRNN

recombinant plasminogen = target: T2, recombinant plasminogen
T2 chain: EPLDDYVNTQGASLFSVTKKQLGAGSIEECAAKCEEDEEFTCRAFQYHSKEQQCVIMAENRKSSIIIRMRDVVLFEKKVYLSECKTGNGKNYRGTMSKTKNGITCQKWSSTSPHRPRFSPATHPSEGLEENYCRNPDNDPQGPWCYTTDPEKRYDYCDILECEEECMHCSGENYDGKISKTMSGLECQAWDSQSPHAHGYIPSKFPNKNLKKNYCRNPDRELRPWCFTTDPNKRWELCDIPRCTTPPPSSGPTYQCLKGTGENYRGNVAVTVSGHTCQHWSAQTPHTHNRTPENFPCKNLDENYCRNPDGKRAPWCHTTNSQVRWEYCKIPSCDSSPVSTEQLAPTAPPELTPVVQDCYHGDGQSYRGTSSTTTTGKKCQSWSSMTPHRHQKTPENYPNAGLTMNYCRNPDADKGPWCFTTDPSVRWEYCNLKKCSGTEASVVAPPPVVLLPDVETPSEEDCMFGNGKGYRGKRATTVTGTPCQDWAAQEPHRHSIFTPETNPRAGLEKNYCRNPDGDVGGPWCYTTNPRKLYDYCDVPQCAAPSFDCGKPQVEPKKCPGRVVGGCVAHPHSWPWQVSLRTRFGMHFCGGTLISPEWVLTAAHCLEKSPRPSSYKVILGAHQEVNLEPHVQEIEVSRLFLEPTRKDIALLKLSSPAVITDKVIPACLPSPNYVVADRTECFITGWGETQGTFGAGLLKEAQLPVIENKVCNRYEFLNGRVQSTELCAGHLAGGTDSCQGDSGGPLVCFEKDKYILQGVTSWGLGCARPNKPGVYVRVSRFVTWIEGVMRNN

[2] = target: T3, native plasminogen glycoform II (purified in-house from human plasma), P00747
T3 chain: T1 chain

B1: tissue-type plasminogen activator (protein)
chain: SYQVICRDEKTQMIYQQHQSWLRPVLRSNRVEYCWCNSGRAQCHSVPVKSCSEPRCFNGGTCQQALYFSDFVCQCPEGFAGKCCEIDTRATCYEDQGISYRGTWSTAESGAECTNWNSSALAQKPYSGRRPDAIRLGLGNHNYCRNPDRDSKPWCYVFKAGKYSSEFCSTPACSEGNSDCYFGNGSAYRGTHSLTESGASCLPWNSMILIGKVYTAQNPSAQALGLGKHNYCRNPDGDAKPWCHVLKNRRLTWEYCDVPSCSTCGLRQYSQPQFRIKGGLFADIASHPWQAAIFAKHRRSPGERFLCGGILISSCWILSAAHCFQERFPPHHLTVILGRTYRVVPGEEEQKFEVEKYIVHKEFDDDTYDNDIALLQLKSDSSRCAQESSVVRTVCLPPADLQLPDWTECELSGYGKHEALSPFYSERLKEAHVRLYPSSRCTSQHLLNRTVTDNMLCAGDTRSGGPQANLHDACQGDSGGPLVCLNDGRMTLVGIISWGLGCGQKDVPGVYTKVTNYLDWIRDNMRP
- Km (nM) of Plg activation by tPA [1]: 163 nM
- Vmax (nM/s) of Plg activation by tPA [1]: 3.06 nM/s
- Km (nM) of Plg activation by tPA (recombinant plasminogen): 139 nM
- Vmax (nM/s) of Plg activation by tPA (recombinant plasminogen): 3.47 nM/s
- cleavage to plasmin, SDS-PAGE under reducing conditions (recombinant plasminogen): tPA-cleaved recombinant plasmin (rPlm) resulting from the cleavage of rPlg by tPA
- Km (nM) of Plg activation by tPA [2]: 146 nM
- Vmax (nM/s) of Plg activation by tPA [2]: 1.67 nM/s
